Experimental findings from paper PMC3252255, “Heterologous overexpression of Glomerella cingulata FAD-dependent glucose dehydrogenase in Escherichia coli and Pichia pastoris” (Microbial Cell Factories, 2011) are described below.

In series [1] the target is T1, recGcGDH (recombinant Glomerella cingulata FAD-dependent glucose dehydrogenase) (Colletotrichum gloeosporioides, UniProt G8E4B5).
T1 construct: gene gdh; native stop codon in primer, no tag; glycosylated, 88-131 kDa on SDS-PAGE, 67 kDa deglycosylated
T1 sequence (G8E4B5 17-600): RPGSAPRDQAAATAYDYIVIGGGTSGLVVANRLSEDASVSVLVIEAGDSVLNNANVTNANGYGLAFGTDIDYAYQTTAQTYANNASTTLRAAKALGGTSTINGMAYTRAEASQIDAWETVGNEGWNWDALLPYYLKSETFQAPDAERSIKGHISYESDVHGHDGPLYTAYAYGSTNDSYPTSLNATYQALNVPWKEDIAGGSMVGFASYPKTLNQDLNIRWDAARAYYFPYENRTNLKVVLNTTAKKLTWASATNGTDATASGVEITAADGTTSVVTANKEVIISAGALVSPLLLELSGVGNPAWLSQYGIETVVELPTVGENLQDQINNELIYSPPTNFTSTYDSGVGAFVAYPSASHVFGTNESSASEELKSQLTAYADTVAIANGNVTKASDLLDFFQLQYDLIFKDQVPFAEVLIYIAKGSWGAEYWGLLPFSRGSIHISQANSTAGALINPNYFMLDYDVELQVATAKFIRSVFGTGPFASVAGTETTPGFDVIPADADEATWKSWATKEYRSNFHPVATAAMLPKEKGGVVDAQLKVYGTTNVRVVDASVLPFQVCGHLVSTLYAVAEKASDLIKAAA
Nature of the series: UV/Vis absorption spectrum of purified enzyme, oxidized and glucose-reduced. Type of series: binding. As to conditions: 50 mM citrate pH 5.5, room temperature; FAD bound as purified.

Substrate in series [2]: OC[C@H]1OC(O)[C@H](O)[C@@H](O)[C@@H]1O
Nature of the series: steady-state kinetics, spectrophotometric ferrocenium reduction. The class given is biochemical, Colletotrichum gloeosporioides. The note with it: pH 5.5, 30°C, ferrocenium hexafluorophosphate as electron acceptor (20 μM in table, 200 μM in methods), also measured at pH 7.5. From the text:
steady-state kinetics, spectrophotometric ferrocenium reduction on recGcGDH (recombinant Glomerella cingulata FAD-dependent glucose dehydrogenase)

For orientation: Km means the concentration of substrate that gives half-maximal velocity. A word on the kcat: it is the maximal rate divided by the concentration of active sites. The term kcat/Km denotes the turnover number divided by the Michaelis constant.

For `Cc1cc2nc3c(=O)[nH]c(=O)nc-3n(C[C@H](O)[C@H](O)[C@H](O)COP(=O)(O)OP(=O)(O)OC[C@H]3O[C@@H](n4cnc5c(N)ncnc54)[C@H](O)[C@@H]3O)c2cc1C` [FAD], the “UV/Vis absorption spectrum of purified enzyme, oxidized and glucose-reduced” value in series [1] is “typical flavoprotein spectrum shows the same characteristics as the spectrum of wild-type GcGDH”.

B1: recGcGDH (recombinant Glomerella cingulata FAD-dependent glucose dehydrogenase) (Colletotrichum gloeosporioides) (protein)
chain: T1 sequence (G8E4B5 17-600)
notes: native stop codon in primer, no tag; glycosylated, 88-131 kDa on SDS-PAGE, 67 kDa deglycosylated
Regarding B1, in series [2], the Michaelis-Menten constant (Km) was 10.1 ± 0.4 mM, the turnover number (kcat) came out at 179 ± 4 s⁻¹ and the specificity constant (kcat/Km) was 17700 M⁻¹ s⁻¹.
